Test results: doi:10.1101/2023.02.01.526556
Where no end group is shown, it is not given here.

Columns and labels:
[1] = target: AkFaNaC W167F (Aplysia kurodai)
[2] = target: AkFaNaC W167Y (Aplysia kurodai)

EC50 of the FMRFamide-gated Na+ current (COVC, Xenopus oocytes) [1]: > 100 µM
EC50 of the FMRFamide-gated Na+ current (COVC, Xenopus oocytes) [2]: > 100 µM
B1: FMRFamide (peptide)
peptide: FMRF-NH2
